Reference: article PMC5505470
Where two headings read alike, the source gives them in different places.

How the values were obtained:
[1] = molecular target: PTBP1 full length (UniProt P26599-1 1-531, C250S;C251S); assay: UV crosslinking CLIR-MS/MS
[2] = molecular target: T1, PTBP1-RRM2 (UniProt P26599-1 178-317, C250S;C251S); assay: NMR
[3] = molecular target: T2, PTBP1-RRM1 (UniProt P26599-1 41-163); assay: NMR
[4] = molecular target: T1, PTBP1-RRM2; assay: NMR solution structure model
[5] = molecular target: T2, PTBP1-RRM1; assay: NMR; remark: listed apart in the source
[6] = molecular target: PTBP1-RRM1;PTBP1-RRM34 (;, UniProt P26599-1;P26599-1 41-163;324-531, |); assay: NMR
[7] = molecular target: PTBP1-RRM34 (UniProt P26599-1 324-531); assay: NMR

B1: EMCVDElinkF (structured_RNA)
RNA: GGAUACUGGCCGAAGCCGCUUGGAAUAAGGCCGGUGUGCGUUUGUCUAUAUGUUAUUUUCCACCAUAUUGCCGUCUUUUGGCAAUGUG
- binding result [1]: binds

Binder: GGAGCGUUUGUCUAUAUGUUCC (structured_RNA) [EMCVE]
- binding result [2]: binds
- binding result [3]: binds

Binder: GGAUAUUGCCGUCUUUUGGCAAUGUCC (structured_RNA) [EMCVF]
- binding result [4]: binds
- binding result [5]: binds

B2: EMCVDElink (structured_RNA)
RNA: GGAUACUGGCCGAAGCCGCUUGGAAUAAGGCCGGUGUGCGUUUGUCUAUAUGUUAUUUUCCAC
- binding result [6]: binds
- binding result [7]: binds
